Series [1] concerns the molecule itself. Put plainly: particle intensities calibrated to single GFP molecules (near-TIRF imaging of living embryos); posterior membrane, where PAR-3 density is lower; homozygous par-1 mutant embryos, late maintenance phase; streaming mode, 100% laser power, 50 msec exposure; features binned by intensity against the mean single molecule intensity after photobleaching; size distribution fitted to An = A1 α^n−1.

Series [2] concerns the molecule itself. The series is described as follows: particle intensities calibrated to single GFP molecules (near-TIRF imaging of living embryos); anterior membrane, where PAR-3 density is higher; homozygous par-1 mutant embryos, late maintenance phase; streaming mode, 100% laser power, 50 msec exposure; features binned by intensity against the mean single molecule intensity after photobleaching; size distribution fitted to An = A1 α^n−1.

Series [3] concerns the molecule itself. The series is described as follows: single molecule tracking and release curves (near-TIRF imaging of living embryos); single PAR-3::GFP molecules, 100% laser power, 50 msec exposures, duty ratio of exposure varied; release curves fitted to exponentials from tmin = 1 sec; linear fit kops = kdep + dr * kpb, the intercept is kdep (depolymerization of a subunit from membrane-bound oligomers); also in par-6(RNAi) and cdc-42(RNAi) embryos, no significant ….

We go through two proteins from doi:10.1101/2023.08.04.552031, “Oligomerization and positive feedback on membrane recruitment encode dynamically stable PAR-3 asymmetries in the C. elegans zygote” (bioRxiv, 2023).

B1: PAR-3::GFP, endogenously tagged (C-terminal fusion of GFP to PAR-3 from the endogenous locus) (natural protein, C. elegans, UniProt Q17353 1-1379, looked up)
chain: MSASSTSSSSTSCPEGGEPSGSCKSSDEGESTLKKRMQQYGIASGYANSSISTLDRSQYQSLPLNGTRRVTVQFGRMKIVVPWKESDQTVGQLADAALLRYKKARGMANEDRIHVHRLECASDGGILDMDDVLEEVFDLNYDQILAITDEANGGSTTPTYSQIQKQQHHYAQPLPYARKFDGGPSTPIASAFGSVTVNHQAHRAASPYNVGFARSNSRDFAPQPTHSKERRDSVVEVSSFDQIPQSGLRVSTPKPSRQSEDVIDGKPMNQPILRSSLRTEASGSRTEEATPVKQSRVTLSPEVEKKLAEQDERKSERRKHYDKNPGRFARGSDRKSRITDALLDARDRIADQLESQNPAEETKSQMIRVKIDQGPMPGTSLVTFPPIPEKSENEKQLGIEVNAVFDESSELPGTSEPTKLSSVQIMKIEDGGRIAKDGRIRVGDCIVAIDGKPVDQMSIIRVRASISDLAAVTSRPVTLIINRSLESFLEQESSAKPIQSALQQANTQYIGHTTVVELIKSSNGFGFTVTGRETAKGERLFYIGTVKPYGVALGHLKSGDRLLEINGTPTGQWTQSEIVEKLKETMVGEKIKFLVSRVSQSAIMSTSASSENKENEETLKVVEEEKIPQKLPLPALMTPPVPKDTPALSPSGASRFEIVIPFINGSSSAGLGVSLKARVSKKSNGSKVDCGIFIKNVMHGGAAFKEGGLRVDDRIVGVEDIDLEPLDNREAQAALAKKLKEVGMISSNVRLTISRYNECNPGQISRDLSRITVDASSPSPSSRMSSHTAPDSLLPSPATRGTSSSGADSSHSRQSSASSAVPAVPARLTERDSIVSDGTSRNDESELPDSADPFNREGLGRKSLSEKRGMGAAADPQHIKLFQDIKHQRQNSAPTSSTQKRSKSQPRSSSQRNYRSPMKLVDLPTTAAASASTNSQNLDDSDMLNRRSQSMESINRPVESILRGTGQIPTGSSSKVQFMQAASPDQHPFPPGAALLRLKNEESRSRDKSRRKSMGNPFSAMRNFFGFGSKSRDASPEKTPTESVQLRSVERPKSIIDERNNGSSERAPPPLPPHQSQRRGSGGNVFVDYGEPYGLIPQYPHNTTSGYESYADSELYDRYAAHRYHPRGGPIIDEDEYIYRQQSTSGNSPINTSSYVNYGLPASNAYHVGSRIPPQTSSGSISKTSGAMRRVYPAEYDEDVAYHQQIPQQSTRYQQGSGSGRGNADYHHMFNSWFAYTGGGAVGAAPVIKSSYGSSPVRIAAASAIERGESFVVEPVSGSSASATDRRGRSTSSGAVASGSSSTGFQYAAKEKYADARSGKFNGGSTRLFIPRHGGGLSAAAFATNFGGEAYETRGGGAGGSPSQYRRRDQGPPHRFPQY
notes: PAR-3, C. elegans, oligomeric scaffold protein; expressed from the endogenous locus; Oligomers of variable size (exponential size distribution) at the cell membrane; also called endogenously-tagged PAR-3::GFP; par-1; source: expressed from the endogenous locus in C. elegans, observed in living one-cell embryos; not shown: GFP, C-terminal, kept
On to B1, for which the stoichiometry N – broadly, the number of molecules, sites or subunits per partner or assembly – in series [1] is 1.65 ± 0.16 subunits (mean oligomer size); in series [2], 3.48 ± 0.65 subunits (mean oligomer size).

B2: PAR-3::GFP, transgenic (natural protein, C. elegans, UniProt Q17353 1-1379, looked up)
chain: MSASSTSSSSTSCPEGGEPSGSCKSSDEGESTLKKRMQQYGIASGYANSSISTLDRSQYQSLPLNGTRRVTVQFGRMKIVVPWKESDQTVGQLADAALLRYKKARGMANEDRIHVHRLECASDGGILDMDDVLEEVFDLNYDQILAITDEANGGSTTPTYSQIQKQQHHYAQPLPYARKFDGGPSTPIASAFGSVTVNHQAHRAASPYNVGFARSNSRDFAPQPTHSKERRDSVVEVSSFDQIPQSGLRVSTPKPSRQSEDVIDGKPMNQPILRSSLRTEASGSRTEEATPVKQSRVTLSPEVEKKLAEQDERKSERRKHYDKNPGRFARGSDRKSRITDALLDARDRIADQLESQNPAEETKSQMIRVKIDQGPMPGTSLVTFPPIPEKSENEKQLGIEVNAVFDESSELPGTSEPTKLSSVQIMKIEDGGRIAKDGRIRVGDCIVAIDGKPVDQMSIIRVRASISDLAAVTSRPVTLIINRSLESFLEQESSAKPIQSALQQANTQYIGHTTVVELIKSSNGFGFTVTGRETAKGERLFYIGTVKPYGVALGHLKSGDRLLEINGTPTGQWTQSEIVEKLKETMVGEKIKFLVSRVSQSAIMSTSASSENKENEETLKVVEEEKIPQKLPLPALMTPPVPKDTPALSPSGASRFEIVIPFINGSSSAGLGVSLKARVSKKSNGSKVDCGIFIKNVMHGGAAFKEGGLRVDDRIVGVEDIDLEPLDNREAQAALAKKLKEVGMISSNVRLTISRYNECNPGQISRDLSRITVDASSPSPSSRMSSHTAPDSLLPSPATRGTSSSGADSSHSRQSSASSAVPAVPARLTERDSIVSDGTSRNDESELPDSADPFNREGLGRKSLSEKRGMGAAADPQHIKLFQDIKHQRQNSAPTSSTQKRSKSQPRSSSQRNYRSPMKLVDLPTTAAASASTNSQNLDDSDMLNRRSQSMESINRPVESILRGTGQIPTGSSSKVQFMQAASPDQHPFPPGAALLRLKNEESRSRDKSRRKSMGNPFSAMRNFFGFGSKSRDASPEKTPTESVQLRSVERPKSIIDERNNGSSERAPPPLPPHQSQRRGSGGNVFVDYGEPYGLIPQYPHNTTSGYESYADSELYDRYAAHRYHPRGGPIIDEDEYIYRQQSTSGNSPINTSSYVNYGLPASNAYHVGSRIPPQTSSGSISKTSGAMRRVYPAEYDEDVAYHQQIPQQSTRYQQGSGSGRGNADYHHMFNSWFAYTGGGAVGAAPVIKSSYGSSPVRIAAASAIERGESFVVEPVSGSSASATDRRGRSTSSGAVASGSSSTGFQYAAKEKYADARSGKFNGGSTRLFIPRHGGGLSAAAFATNFGGEAYETRGGGAGGSPSQYRRRDQGPPHRFPQY
notes: PAR-3, C. elegans; transgenically expressed; The oligomers from which single labelled molecules depolymerise probably also hold unlabelled PAR-3 of the embryo; also called transgenic PAR-3::GFP; full length PAR-3::GFP
For the protein B2, the koff – broadly, a measure of how fast the partners let go of each other – in series [3] was determined as 0.08 s⁻¹.
